B1: TPR 5TU (parent)
chain: GGAUCUUCUCGAUCUAACAAAAAAGACAAAUCUGCCACAAAGCUUGAGAGCAUCUUCGGAUGCAGAGGCGGCAGCCUUCGGUGGCGCGAUAGCGCCAACGUUCUCAACUAUGACACGCAAAACGCGUGCUCCGUUGAAUGGAGUUUAUCAUG

This sample holds only a part of the variants without activity. Where only a bound is given, the exact number is not on record here.

In this data set the parent is B1. Put plainly: polymerase ribozyme fitness, log enrichment relative to wild type (log ratio); higher = more active; in vitro selection for triplet polymerase activity. An outline of the steps: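 PCR was used to build mutant libraries for each subunit of a heterodimeric triplet polymerase ribozyme, which were then transcribed. A single in vitro selection round, in triplicate, used a frozen incubation at −7 °C and recovered extended constructs by gel excision, streptavidin beads and RT-PCR. Fitness is the logarithm of genotype enrichment relative to wild-type enrichment, averaged over replicates with inverse-variance weights. The logarithm is base 2, and after Illumina sequencing only genotypes with ≥10 input reads and ≥1 read per output were kept.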
As for A24U C96U, the “polymerase ribozyme fitness (log ratio)” value turned out to be 0.0587. For A24U C96G, the “polymerase ribozyme fitness (log ratio)” value is -0.301.

A24U G140A: the “polymerase ribozyme fitness (log ratio)” value was -4.12. As to A24C C72A C103A U109G G126U, the “polymerase ribozyme fitness (log ratio)” value is not above -4.2. Turning to A24G A73G G86A G141U U145A A150U, the “polymerase ribozyme fitness (log ratio)” value was not above -4.2. The value for G25C A150C was -3.47; that for A24C G86C G143A U148C was not above -4.2; that for A24U A60U G83A was -1.22. The value for A24U A47C G86A G94C C118U A137G was not above -4.2; that for A24U C35A C85U C132A was not above -4.2; that for A24G U145A was -3.78. The value for A24G U33G G71A C87G C93G C96A A98G A137G was not above -4.2.

Regarding A24U A40C A49C C72G G83U C87G U139G U144C U151G, the “polymerase ribozyme fitness (log ratio)” value is not above -4.2. G25C G88U G124A G128U U135C: the “polymerase ribozyme fitness (log ratio)” value is not above -4.2. The value for G25C C27A A28G A40U C149A was not above -4.2. Regarding A24G A26U U56A C87G C123A C132G G133U, the “polymerase ribozyme fitness (log ratio)” value is not above -4.2.

Take A24U A30C C93G C118A: the “polymerase ribozyme fitness (log ratio)” value was not above -4.2. Take A24U G46C A73G C87U G92C: the “polymerase ribozyme fitness (log ratio)” value is -3.37. The value for A24C A73C G86U C96A was not above -4.2. The value for G25A U31A U56A G58A A60C C95U U135A was -1.75; that for G25C C27G C32U A40C U55A C57A G88U C96U G141A was not above -4.2; that for A24U C35U C38G A89U A91U was -3.93.

In the case of A24C C118U C125U, the “polymerase ribozyme fitness (log ratio)” value was not above -4.2. A24U G42A C108U: the “polymerase ribozyme fitness (log ratio)” value was 1.52. The value for A24C G46C A73G C93A A110U A147U was not above -4.2; that for A24C U55A C57U G58U A66G G68C C85A C149G was not above -4.2. The value for A24G A49G C105U G117U was not above -4.2. Regarding G25C C87A G100U, the “polymerase ribozyme fitness (log ratio)” value was not above -4.2.

On to G25C A30U U78C C96G, for which the “polymerase ribozyme fitness (log ratio)” value was -3.97. The value for A24U G94A was 0.123; that for G25C C76U C79G C93A C118U was not above -4.2. With A24U A52G, the “polymerase ribozyme fitness (log ratio)” value turned out to be 0.771. For the variant A24U C63A, the “polymerase ribozyme fitness (log ratio)” value was found to be 1.21. The value for A24U U82G G83C was -1.55; that for A24C C95A C96G U144C was not above -4.2. The value for G25A G34U C35G C85G was -4.2.

With G25C A52C U56A C85U G124C, the “polymerase ribozyme fitness (log ratio)” value is not above -4.2. Turning to A24U U82A C96G, the “polymerase ribozyme fitness (log ratio)” value turned out to be 0.476. The value for A24G A30G A47U A52C A60C C76A G100A C114A C118G G140A was not above -4.2; that for A24U A37U U82G was -0.974. The value for A24U A47C G71C A97U A98G C129G was not above -4.2. In the case of A24U C38U, the “polymerase ribozyme fitness (log ratio)” value is 0.361. On to A24G U33G C87U U101G G140C, for which the “polymerase ribozyme fitness (log ratio)” value was not above -4.2. The value for G25C C35U G74C C75A U148G was not above -4.2. The value for G25U A29U C43A A64U C93U C131U was not above -4.2; that for A24U C93U A119C was -1.98; that for A24U U53A U55A C95U C99A was not above -4.2. As for A24C C32G C43G C87G U104G A115C, the “polymerase ribozyme fitness (log ratio)” value was not above -4.2. A24U C35A A41C G88C: the “polymerase ribozyme fitness (log ratio)” value was not above -4.2.

For A24C A28U A37U U134C, the “polymerase ribozyme fitness (log ratio)” value was not above -4.2.

In the case of A24C G74C U90G C99G U127A, the “polymerase ribozyme fitness (log ratio)” value is not above -4.2. The value for A24C G84A was not above -4.2. For A24U U31C G68U G70A G94U C116G U139G, the “polymerase ribozyme fitness (log ratio)” value is not above -4.2. For A24U C27G G50C C54G A64C G84A G86C C118G C149U, the “polymerase ribozyme fitness (log ratio)” value was not above -4.2.

G25C C85U A89U U135G: the “polymerase ribozyme fitness (log ratio)” value is not above -4.2. The value for G25C C93U was -3.59. The value for A24U G25C A28G A30G A49U G83A C87A was not above -4.2; that for G25U A37C G83A U134C was -2.66. The value for A23U U109A was not above -4.2. Regarding A24U A52G A106G G143A, the “polymerase ribozyme fitness (log ratio)” value is -1.81. With A24G C85A, the “polymerase ribozyme fitness (log ratio)” value was -2.96. Regarding A24G C85G, the “polymerase ribozyme fitness (log ratio)” value is not above -4.2. On to A24G C32A U33G G65A G80A A98U G126C U145G A147C, for which the “polymerase ribozyme fitness (log ratio)” value was not above -4.2.

Take A24U A28C G59C G86C A122U G133C: the “polymerase ribozyme fitness (log ratio)” value was not above -4.2. The value for A24C C32U A49C C85G G86A A91G C123G C132A was not above -4.2. A24G A30U G42U C72U A91G A120C: the “polymerase ribozyme fitness (log ratio)” value is not above -4.2.

As to A24U G58C U104A G141U, the “polymerase ribozyme fitness (log ratio)” value is -1.93. The value for A24U C51A U56A G71U G88C U102C was not above -4.2; that for G25C G46A U144C was -4.12; that for A24C A73G G83C G143U was not above -4.2. Turning to A24U C54A G86A, the “polymerase ribozyme fitness (log ratio)” value was -3.38. The value for A24U A49G A52C U53A U55A C69A was not above -4.2. For the variant G25A A26G A40G A47C C85A C116G A119C, the “polymerase ribozyme fitness (log ratio)” value was not above -4.2. On to A24U A26U G48C G83A A115U C116U, for which the “polymerase ribozyme fitness (log ratio)” value is not above -4.2. The value for G25C C54A C105U was -3.21. As to G25U A30G A47G C51U G80C A110C, the “polymerase ribozyme fitness (log ratio)” value was not above -4.2. The value for A24C U61A C63G G81A G94A was not above -4.2; that for A24G C93U was -3.49. Regarding G25A A64G G88A, the “polymerase ribozyme fitness (log ratio)” value was not above -4.2. On to A24U G50A C108G C125A G141C, for which the “polymerase ribozyme fitness (log ratio)” value was not above -4.2.

Turning to G25A G48U U61G C96A A97G C132G, the “polymerase ribozyme fitness (log ratio)” value is not above -4.2. The value for A24G C87A was not above -4.2. The value for A24U G68C G81C G94A A98C U104C was not above -4.2.

(Values after the RNAGym collection of RNA variant scans (doi:10.1073/pnas.2313332121).)
